Source: publication PMC3278529 (Free radical biology & medicine, 2011)
The star is where a group is joined. Biotin = O=C1N[C@H]2[C@H](CS[C@H]2CCCCC(=O)*)N1

T1: His-p47^phox wild type (human, UniProt P14598 1-390)
T1 sequence (looked up): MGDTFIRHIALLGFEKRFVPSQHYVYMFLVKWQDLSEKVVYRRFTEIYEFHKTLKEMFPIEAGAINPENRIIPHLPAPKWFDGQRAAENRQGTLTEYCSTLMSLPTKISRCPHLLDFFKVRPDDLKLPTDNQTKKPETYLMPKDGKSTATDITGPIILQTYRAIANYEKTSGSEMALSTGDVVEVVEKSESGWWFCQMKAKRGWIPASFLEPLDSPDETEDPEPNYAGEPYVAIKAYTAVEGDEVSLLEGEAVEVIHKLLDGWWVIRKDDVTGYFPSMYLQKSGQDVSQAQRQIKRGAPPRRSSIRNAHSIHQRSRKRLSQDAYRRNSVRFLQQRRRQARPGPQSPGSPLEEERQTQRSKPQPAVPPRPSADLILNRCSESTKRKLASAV

T2: C111A-p47^phox (human, UniProt P14598 1-390, C111A)
T2 sequence (looked up): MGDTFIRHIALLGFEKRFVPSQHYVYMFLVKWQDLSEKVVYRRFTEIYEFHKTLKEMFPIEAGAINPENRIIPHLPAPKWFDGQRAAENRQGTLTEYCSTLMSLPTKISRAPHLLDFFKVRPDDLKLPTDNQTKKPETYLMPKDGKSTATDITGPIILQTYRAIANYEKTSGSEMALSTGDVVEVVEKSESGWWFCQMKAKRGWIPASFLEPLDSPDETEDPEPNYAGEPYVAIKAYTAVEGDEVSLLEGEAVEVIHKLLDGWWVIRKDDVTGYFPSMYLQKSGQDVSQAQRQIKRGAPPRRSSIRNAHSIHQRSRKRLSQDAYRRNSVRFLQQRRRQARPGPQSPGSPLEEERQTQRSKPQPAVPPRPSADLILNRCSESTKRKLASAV

T3: C98G-p47^phox (human, UniProt P14598 1-390, C98G)
T3 sequence (looked up): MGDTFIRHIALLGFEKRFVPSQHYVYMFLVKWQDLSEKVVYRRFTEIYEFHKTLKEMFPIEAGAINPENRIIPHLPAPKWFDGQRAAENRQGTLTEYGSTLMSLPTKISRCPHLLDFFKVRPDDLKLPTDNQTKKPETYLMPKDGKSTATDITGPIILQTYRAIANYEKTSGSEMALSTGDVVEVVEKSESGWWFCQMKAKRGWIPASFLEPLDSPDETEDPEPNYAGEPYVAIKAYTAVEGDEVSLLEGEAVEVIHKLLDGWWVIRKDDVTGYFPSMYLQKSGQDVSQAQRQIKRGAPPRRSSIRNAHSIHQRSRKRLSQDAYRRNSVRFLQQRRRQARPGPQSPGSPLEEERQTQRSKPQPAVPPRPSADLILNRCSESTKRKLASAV

T4: C196A-p47^phox (human, UniProt P14598 1-390, C196A)
T4 sequence (looked up): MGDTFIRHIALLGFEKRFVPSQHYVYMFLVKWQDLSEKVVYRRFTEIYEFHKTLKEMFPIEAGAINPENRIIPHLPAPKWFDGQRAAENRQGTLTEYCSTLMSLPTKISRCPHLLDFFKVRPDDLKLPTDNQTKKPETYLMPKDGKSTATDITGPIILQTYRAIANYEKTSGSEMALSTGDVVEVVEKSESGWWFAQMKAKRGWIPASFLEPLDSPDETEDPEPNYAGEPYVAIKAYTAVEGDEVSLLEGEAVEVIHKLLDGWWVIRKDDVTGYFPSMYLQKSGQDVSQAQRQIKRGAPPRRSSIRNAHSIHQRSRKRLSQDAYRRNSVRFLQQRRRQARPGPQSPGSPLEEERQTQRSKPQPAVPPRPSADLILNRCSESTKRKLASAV

T5: C378A-p47^phox (human, UniProt P14598 1-390, C378A)
T5 sequence (looked up): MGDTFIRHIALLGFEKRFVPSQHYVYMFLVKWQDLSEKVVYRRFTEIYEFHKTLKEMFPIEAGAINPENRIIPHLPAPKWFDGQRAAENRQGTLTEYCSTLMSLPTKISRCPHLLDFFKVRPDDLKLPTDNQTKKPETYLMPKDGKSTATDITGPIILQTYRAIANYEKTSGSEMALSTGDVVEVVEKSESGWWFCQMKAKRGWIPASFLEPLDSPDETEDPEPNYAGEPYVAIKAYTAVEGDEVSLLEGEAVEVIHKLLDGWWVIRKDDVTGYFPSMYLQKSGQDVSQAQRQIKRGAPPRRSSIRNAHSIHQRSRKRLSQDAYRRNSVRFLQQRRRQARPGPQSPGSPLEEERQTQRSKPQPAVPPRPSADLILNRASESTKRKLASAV

B1: proline-rich p22^phox peptide (biotin-p22^phox) (peptide)
peptide: Biotin-SGSGPPSNPPPRPPAEARK-NH2
SMILES: C[C@H](NC(=O)[C@H](CCC(=O)O)NC(=O)[C@H](C)NC(=O)[C@@H]1CCCN1C(=O)[C@@H]1CCCN1C(=O)[C@H](CCCNC(=N)N)NC(=O)[C@@H]1CCCN1C(=O)[C@@H]1CCCN1C(=O)[C@@H]1CCCN1C(=O)[C@H](CC(N)=O)NC(=O)[C@H](CO)NC(=O)[C@@H]1CCCN1C(=O)[C@@H]1CCCN1C(=O)CNC(=O)[C@H](CO)NC(=O)CNC(=O)[C@H](CO)NC(=O)CCCC[C@@H]1SC[C@@H]2NC(=O)N[C@@H]21)C(=O)N[C@@H](CCCNC(=N)N)C(=O)N[C@@H](CCCCN)C(N)=O

Columns and labels:
p47^phox = p47^phox (Homo sapiens, UniProt P14598); assay: ELISA of p47phox-p22phox peptide interaction; assay type: binding
Chain of p47^phox (P13498 2-195, one chain of several): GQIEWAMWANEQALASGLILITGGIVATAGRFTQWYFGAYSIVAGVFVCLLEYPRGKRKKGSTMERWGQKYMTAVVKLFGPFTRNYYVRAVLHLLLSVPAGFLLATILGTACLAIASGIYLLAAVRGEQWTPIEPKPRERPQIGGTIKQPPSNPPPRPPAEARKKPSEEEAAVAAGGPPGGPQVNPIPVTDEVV

His-p47^phox wild type = target: T1, His-p47^phox wild type; assay: ELISA
C111A-p47^phox = target: T2, C111A-p47^phox; assay: ELISA
C98G-p47^phox = target: T3, C98G-p47^phox; assay: ELISA
C196A-p47^phox = target: T4, C196A-p47^phox; assay: ELISA
C378A-p47^phox = target: T5, C378A-p47^phox; assay: ELISA

Molecule	IC50 (p47^phox)	binding result (His-p47^phox wild type)	binding result (C111A-p47^phox)	binding result (C98G-p47^phox)	binding result (C196A-p47^phox)	binding result (C378A-p47^phox)
O=C1C=CC(=O)c2ccccc21 [1,4-naphthoquinone]	700 nM	–	–	–	–	–
B1	–	binds	binds	binds	binds	binds
